Laboratory results taken from article PMC10159993.

Experiments:
[1] = molecular target: H2AK119-biotinylated 185 bp nucleosome; experiment: FRET or BRET
KDM2A(2–685) (human) = KDM2A(2–685) (human) (UniProt Q9Y2K7); experiment: FRET or BRET

fold reduction of binding affinity against wild-type KDM2A [1] [fold]	ratio of IC50 (147 bp over 185 bp nucleosome as competitor) (KDM2A(2–685) (human)) [fold]	Substance
20		KDM2A(2–685) K99E/R105E/R128E/R152E (from UniProt Q9Y2K7 2-685) (domain or fragment)
	10	unmodified wild-type 147 bp nucleosome (complex)
4		KDM2A(2–685) R152E (from UniProt Q9Y2K7 2-685) (domain or fragment)
